Data set [1] concerns the target T1, SydR' (WT, CC) (Sinorhizobium meliloti Rm2011) (UniProt Q92XY2).
T1 sequence: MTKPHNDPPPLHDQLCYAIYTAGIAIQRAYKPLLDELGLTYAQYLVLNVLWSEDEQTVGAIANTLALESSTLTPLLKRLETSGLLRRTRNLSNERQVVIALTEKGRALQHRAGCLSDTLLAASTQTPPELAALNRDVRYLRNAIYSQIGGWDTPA
Description: EMSA. Particulars: 10 mM Tris-HCl pH 8, 50 mM KCl, 0.5 mM EDTA, 10% glycerol, 0.5 mM DTT, 10 nM DNA, 25°C 25 min; 8% PAGE in 0.5x TBE. On the technique in general: In EMSA bound probe runs differently from free probe, usually more slowly.

Data set [2] concerns the target His-tagged recombinant SydR (SydR′), wild type (Sinorhizobium meliloti). Description: cross-linking; intersubunit disulfide bond assay: proteins reduced in 100 mM DTT for 2 h, desalted, oxidised with 100 mM NaOCl for 30 min, 100 mM N-ethylmaleimide for 2 h at room temperature, 10% non-reducing SDS-PAGE; shows covalent (disulfide) dimers only.
Data set [3] deals with SydRC16S (SC) (Sinorhizobium meliloti). The description is as above.
The target in data set [4] is SydRC114S (CS) (Sinorhizobium meliloti). The description is as above.

The text below walks through data of article PMC11633110.

The stoichiometry N is a count of units in the complex or per binding partner.

With “CCGCCTTCCAGATCAGTACCGGCTTGCTTAGCCAAGCGCTCGGCCAAACGGACTGAGGCCTCCGTTGCGATCCACCCAGGCGACACCCGCACGACCCGGATACCTTTGGACGAAATTTCCTTCGCTATCGACTTGCCG (double strand) [SMa2019 internal fragment, 138 bp]”, the binding result in data set [1] is listed as “no binding”.

On to “His-tagged recombinant SydR (SydR′), wild type (natural protein)”, for which, in data set [2], the stoichiometry N is 2.

In the case of SydRC16S (SC) (natural protein), the stoichiometry N in data set [3] was 2.

As to SydRC114S (CS) (natural protein), the stoichiometry N in data set [4] was 2.

On to “TCTGGGCTCCTTTGCGCACCAATATAATCAAGATTACCGCGAAAACCAATATCGCGATAAGAGATATGTTGACGAGCAGTTCAATATCTGACAACTTAAATATATCGCGATAACAGTTATCGCTATCAACGAAAGGAAAAAGCC (double strand) [sydR-SMa2023 intergenic region, 144 bp]”, for which, in data set [1], the binding result was “binds”.
